Test results published in paper PMC6374115.

Experiment: live-cell confocal, cytosolic distribution
Details: glycan lost; control: WT YFP-cryAB

B1: cryAB (crystallin alphaB / HspB5): T170A (protein)
parent chain: MDIAIHHPWIRRPFFPFHSPSRLFDQFFGEHLLESDLFPTSTSLSPFYLRPPSFLRAPSWFDTGLSEMRLEKDRFSVNLDVKHFSPEELKVKVLGDVIEVHGKHEERQDEHGFISREFHRKYRIPADVDPLTITSSLSSDGVLTVNGPRKQVSGPERTIPITREEKPAVTAAPKK
With B1 the localisation_or_trafficking was “changes”.
